Test results reported in IntAct's records for PubMed 21847091.

B1: Abscisic acid receptor PYR1 (Arabidopsis thaliana (Mouse-ear cress)), O49686 (parent)
chain: MPSELTPEERSELKNSIAEFHTYQLDPGSCSSLHAQRIHAPPELVWSIVRRFDKPQTYKHFIKSCSVEQNFEMRVGCTRDVIVISGLPANTSTERLDILDDERRVTGFSIIGGEHRLTNYKSVTTVHRFEKENRIWTVVLESYVVDMPEGNSEDDTRMFADTVVKLNLQKLATVAEAMARNSGDGSGSQVT

Variants of: B1
Settings: with HAB1, Q9CAJ0
Sequence of HAB1, Q9CAJ0 (Q9CAJ0 whole entry): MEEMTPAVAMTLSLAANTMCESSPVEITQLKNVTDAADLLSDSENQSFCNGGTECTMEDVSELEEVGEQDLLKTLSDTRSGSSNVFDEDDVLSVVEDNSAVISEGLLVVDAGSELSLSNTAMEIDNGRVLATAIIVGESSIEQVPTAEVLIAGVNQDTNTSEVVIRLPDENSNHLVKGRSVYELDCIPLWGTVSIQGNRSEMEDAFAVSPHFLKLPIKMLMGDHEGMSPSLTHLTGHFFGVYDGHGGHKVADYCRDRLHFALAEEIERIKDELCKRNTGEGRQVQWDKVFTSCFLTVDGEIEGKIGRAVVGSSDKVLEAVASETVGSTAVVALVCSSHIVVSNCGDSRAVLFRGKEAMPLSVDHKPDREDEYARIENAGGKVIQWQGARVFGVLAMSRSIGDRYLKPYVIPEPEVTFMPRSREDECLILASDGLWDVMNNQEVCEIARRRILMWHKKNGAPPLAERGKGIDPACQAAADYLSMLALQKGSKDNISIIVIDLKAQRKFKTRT

Row | Variant | effect of a mutation on the interaction
1 | H60P | increasing interaction
